Assay results taken from patent publication US20260069689A1 (Regeneron, published 2026).
Residue numbers refer to the chain shown, from its start.

B1: mAb15163 (antibody, V domains shown)
VH: EVQLVETGGGLIQPGESLRLSCAASGFIVSTNYMNWVRQAPGKGLEWVSVIYRGGSTYYADSVKGRFTISRDNSKNTLFLQMNSLRAEDTAVYYCARGHEDFDYDTPASGAFDIWGQGTMVTVSS
VL: QSALTQPPSASGSPGQSVTISCTGTSSDVGGHNYVSWYQQHPGKAPKVMIYEVSKRPSGVPDRFSGSKSGNTASLTVSGLQAEDEADYYCSSYAGSNKFVFGTGTKVTVLG
B2: mAb15157 (antibody, V domains shown)
VH: EVQLVESGGALVQPGGSLRLSCAASGFPFTIYAMTWVRQAPGKGLEWVSVITGSGDSTYYADSVKGRFTISRDNSKNTLYLQMNSLRAEDTAVYYCVKTGEGFFYYYYGMDVWGQGTTVTVSS
VL: QSVLTQPPSVSAAPGQKVTISCSGSSSNIGNSYISWYQQLPGTAPKLLIYVNNKRPSGIPDRFSGSKSGTSATLGITGLQTGDEADYYCGTWDSSLSAGVFGSGTKVTVLG
B3: mAb14258 (antibody, V domains shown)
VH: QLQLQESGPGLVKPSETLSLICTGSGDSISSSHYYWGWIRQPPGKGLEWIGSTYFSGSTYYNPSLKSRVSISVDTSKNQVSLKLISVTAADTAVYYCAREMGATLGDYWGPGTLVTVSS
VL: QSVLTQPPSASGTPGQRVTISCSGSSSNIGNNYVYWYQQFPGTTPRLLIYRNNERPSGVPDRFSGSKSGTSASLVISGLRSEDEADYYCAAWDDSLSAHYVFGTGTKVTVLG
B4: mAb15158 (antibody, V domains shown)
VH: EVQLVESGGGLVQPGGSLRLSCAASGFSFSSNWMSWVRQAPGKGLEWVGNINQDGSEKYYVDSVEGRFTISRDNAKKSLYLQMNSLRAEDTAVYYCARDLGVLWFGDFVDWGQGALVTVSS
VL: DIQMTQSPSSLSASVGDRVTITCRASQAISNSLAWYQQKPGKAPKLLLYAASTLESGVPSRFSGSGSGTDYTLTISSLQPEDFATYYCLQYYGSPRTFGQGTKVEIKR
B5: mAb14312 (antibody, V domains shown)
VH: EVQLVESGGGLVQPGGSLRLSCAASGFTVSRSYMTWVRQAPGKGLEWVSVIFTGGRTDHADSVKGRFTISRHNSKNTLYLQMNSLRTEDTAVYYCARVAIVGATGAFDIWGQGTMVTVSS
VL: QSVLTQPPSVSGAPGQRVTISCTGSSSNIGAGDDVHWYQQLPGTAPKLLIYGNSNRPSGVPDRFSGSKSGTSASLAITGLQAEDEADYYCQSYDSSLSGSVVFGGGTKLTVLG
B6: mAb15159 (antibody, V domains shown)
VH: EVQLVESGGGLVQPGGSLRLSCAASGITVSSNYMTWVRQAPGKGLEWVSLIYSGGSTFYADSVRGRFTISRDNSKNTLYLQMNSLRAEDTAVYYCARDLVVYGMDVWGQGTTVTVSS
VL: DIQLTQSPSSLSASVGDRVTITCRASQGISSYLAWYQQKPGKAPKLLIYAASTLQSGVPSRFSGSGSGTDFTLTISSLQPEDFATYYCQHLNSDPHTFGQGTKLEIKR
B7: mAb15170 (antibody, V domains shown)
VH: B6 VH with S25T, T35S, R64K, D72H, N83S, V101D, Y102F
VL: B6 VL with S31N, A84G, H90Q, P95S, H96P, L104V
B8: mAb15162 (antibody, V domains shown)
VH: EVQLVETGGGLIQPGGSLRLSCAASEFIVSRNYMSWVRQAPGKGLEWVSLIYSGGSTYYADSVKGRFTISRDNSKNILYLQMNSLRAEDTAVYYCARDRGGISDYWGQGTLVTVSS
VL: DIQMTQSPSSLSASVGDRVTITCQASQDINKYLNWFQQKPGKAPKLLIYDASNLETGVPSRFSGSGSGTDFTFTISSLQPEDIATYYCQQYDNLPRTFGQGTKLEIKR
B9: mAb14294 (antibody, V domains shown)
VH: EVQLVESGGGLVQPGGSLRLSCAASGFTFSNHWMDWVRQAPGKGLVWVSRINSDGSSTDYADSVRGRFTMSRDNAKNTLYLQMSSLRAEDTAVYYCAREGMIFGAVIIPGWYFDLWGRGALVTVSS
VL: EIVLTQSPGTLSLSPGERATLSCRASQSVSSSQLAWYQQKPGQAPRLLIYGASSRATGIPDRFSGSGSGTDFTLTISRLEPEDFAVYYCQQYDSFGQGTKLEIKR
B10: mAb15151 (antibody, V domains shown)
VH: QVQLVESGGGVVQPGRSLRLSCAASGFVFNSYGMHWVRQAPGKGLEWVAVLWYEGSKNYYADSVKGRFTISRDNSKNTLYLQMNSLRAEDTAVYYCARHGSGSFFGYYLDYWGQGTLVTVSS
VL: DIQMTQSPSSLSASVGDRVTITCRASHNINDFLNWYQQKPGKAPRLLIYAASSLQSGVPSRFSGSGSGTDFTLTISSLQPEDFATYYCQESYTTPPTFGQGTKLEIKR
B11: mAb14283 (antibody, V domains shown)
VH: QVQLQESGPGLVKPSGTLSLTCDVSGGSISSNNWWSWVRQRPGKGLQWIGEIYHNENTNYNPSLKSRVIMSIDKSKNQFSLKLTSVTAADTAVYYCARGDVLDWFDPWGQGTLVTVSS
VL: QSALTQPASVSGSPGQSTTISCTGTSSDVGGYNYVSWYQQYPGKAPKLMIYDVTNRPSGVSHRFSGSKSGNTASLTISGLQAEDEADYYCSSYTSSSTVIFGGGTKLTVLG
B12: mAb15150 (antibody, V domains shown)
VH: EVQLVETGGGLIQPGGSLRLSCAAPGFIVSSNYMSWVRQAPGKGLEWVSLLYPGGSTYYADSVKGRFTISRDNSKNTLYLQMNSLRADDTAVYYCARVLPIVEDHFDYWGQGTLVTVSS
VL: DIQLTQSPSFLSASVGDRVTITCRASQGMSSYLAWYQKKPGKAPKLLIYGATILQSGVPSRFSGSGSGTEFTLTISSLQPEDFATYYCQQLNSDPLYMYTFGQGTKLEIKR
B13: mAb14289 (antibody, V domains shown)
VH: QVQLVQSGPEVKKPGASVKVSCKASGYTFTSYAISWVRQAPGQGLEWMGWISAYNGNTNYAQKLQGRVTMTTDTFTSTAYMELRSLRSDDTAVYYCAVPADHITFDYWGQGTLVTVSS
VL: EIVLTQSPGTLSLSPGERATLSCRASQSVSSYLAWYQQKPGQAPRLLIHGASSRATGIPDRFSGSGSGTDFTLTISRLEPEDFAVYYCQQYGSSFLTFGGGTKVEIKR
B14: mAb15161 (antibody, V domains shown)
VH: EVQLVESGGGLVQPGGSLRLSCAASGFTFSSYEMNWVRQAPGKGLEWVSYISSSGSILYYADSVKGRFTASRDNAKNSLYLQMNSLRAEDTGVYYCARREYQLLRPFEFWGQGTLVTVSS
VL: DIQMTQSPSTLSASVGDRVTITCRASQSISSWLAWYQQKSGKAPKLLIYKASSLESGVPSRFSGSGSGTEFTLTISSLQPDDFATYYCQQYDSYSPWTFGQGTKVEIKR
B15: mAb14284 (antibody, V domains shown)
VH: QITLKESGPTLVKPTQTLTLTCTFSGFSFSTSGVGVGWIRQPPGKTLEWLALIYWDDDKRYSPSLKSRLTITKDTSKNQVVLTMTNMDPVDTATYFCAHHGIPTIFGYWGQGALVTVSS
VL: QSALTQPASVSGSPGQSITISCTGTSSDLGVFNYVSWYQQHPGKAPKLMIYEVTNRPSGVSNRFSGSKSGNTASLTISGLQAEDEADYYCSSYTTSSTVFGGGTKLTVLG
B16: mAb14235 (antibody, V domains shown)
VH: QITLKESGPTLVKPTQTLTLTCTFSGFSLNTGGVGVGWIRQPPGNALEWLALIYWDDDKRYNPSLKTRLTISKDTSKNQVVLTMTNMDPVDTATYFCAHLTIAVIVDFWGQGTLVTVSS
VL: B15 VL with G24A, L29V, V31T, F32Y, Y38F, Q40H, S96T, T98I
B17: mAb15164 (antibody, V domains shown)
VH: EVQLVESGGGLVQPGGSLRLSCAASGFAVSSNYMTWVRQAPGKGLEWVATIYSGDSTYYADSVKGRFTISRHNSKNTLSLQMNSLRADDTAIYYCARLSGVLSGTYNGAFDIWGQGTMVTVSS
VL: QSALTQPASVSGSPGQSITISCTGTSSDFGNYNIVSWYQQHPGQAPKVMIYEGNKRPSGVSNRFSGSKSGHTASLTISGLQAEDEADYYCSSYAGSSTWVFGGGTKLTVLG
B18: mAb15166 (antibody, V domains shown)
VH: EVQLVESGGGLVQPGGSLRLSCAASGFTVTSNYMSWVRQAPGKGLEWVSAIYSGESTYYADSVKGRFTISRDSSKNTLYLQMNSLRVEDTAVYYCASIHDYSNYVGGFDPWGQGTLVTVSS
VL: B17 VL with T25P, N31S, I34L, Q44K, V48L, N54T, H71N
B19: mAb15165 (antibody, V domains shown)
VH: EVQLVESGGGLVQPGGSLRLSCAASGFTVSSNYMSWVRQAPGKGLEWVSAIYSGDSTYYADSVKGRFTISKDNSKNTLYLQMNSLRGEDTAVYYCARLGGALQAYDGAFDYWGQGTLATVSS
VL: B17 VL with N31S, I34L, Q44K, V48L, N62I, H71N

Target: SARS-COV-2 RBD extracellular domain expressed with a C-terminal myc-myc-hexahistidine tag (SARS-CoV-2)
Assay: SPR (Biacore), mAb captured by anti-human Fc, RBD-mmH in solution, 25 C

| Binder | Kd [nM] | koff [s⁻¹] | kon [M⁻¹ s⁻¹] | t½ [min] |
| --- | --- | --- | --- | --- |
| B1 | 0.0779 | 1.67e-05 | 218000 | 693 |
| B2 | 4.49 | 0.00125 | 278000 | 9.3 |
| B3 | 0.854 | 0.00161 | 1.89e+06 | 7.2 |
| B4 | 0.779 | 8.12e-05 | 104000 | 142 |
| B5 | 0.606 | 0.000929 | 1.53e+06 | 12.4 |
| B6 | 2.66 | 0.00013 | 48900 | 88.8 |
| B7 | 0.1 | 1.53e-05 | 200000 | 756 |
| B8 | 7.3 | 0.00085 | 116000 | 13.6 |
| B9 | 0.914 | 0.000548 | 600000 | 21.1 |
| B10 | 3.89 | 0.000778 | 200000 | 14.8 |
| B11 | 1.08 | 0.00158 | 1.46e+06 | 7.3 |
| B12 | 0.0594 | 4.61e-05 | 774000 | 251 |
| B13 | 1.36 | 0.00158 | 1.16e+06 | 7.3 |
| B14 | 1.35 | 0.000234 | 173000 | 49.3 |
| B15 | 0.824 | 0.000549 | 666000 | 21 |
| B16 | 1.33 | 0.00105 | 789000 | 11 |
| B17 | 1.53 | 0.000349 | 228000 | 33.1 |
| B18 | 21.7 | 0.00535 | 246000 | 2.2 |
| B19 | 0.393 | 0.000212 | 539000 | 54.6 |
